Target: T1, human Tim-3 (T cell immunoglobulin mucin domain-containing protein 3) (Homo sapiens, UniProt Q8TDQ0)
T1 construct: human Tim-3 (HAVCR2), injected as the SPR analyte; I surmise the monomeric IgV domain; also called hTim3; hTim-3
Experiment: SPR; Biacore T200, 37°C; antibody captured on a CM4 chip with preimmobilized anti-human IgG Fc pAb; human Tim-3 injected as analyte, single-cycle kinetics, 5-membered 5-fold dilution series, 1 uM top; 10 mM HEPES, 150 mM NaCl, 0.05% Tween 20, pH 7.4, 1 g/L BSA; 1:1 Langmuir model with mass transport
Details: both partners purified

T1 sequence (Q8TDQ0 22-301): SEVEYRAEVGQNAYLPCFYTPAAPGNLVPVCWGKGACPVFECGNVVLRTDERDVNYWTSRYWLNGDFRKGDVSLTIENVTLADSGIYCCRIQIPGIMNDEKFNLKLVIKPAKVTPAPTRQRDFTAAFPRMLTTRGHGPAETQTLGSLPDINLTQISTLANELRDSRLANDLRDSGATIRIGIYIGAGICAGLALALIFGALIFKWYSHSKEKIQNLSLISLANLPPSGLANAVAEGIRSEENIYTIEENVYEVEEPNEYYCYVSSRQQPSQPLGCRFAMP

B1: aTim-3.18 monoclonal antibody (antibody, V domains shown)
VH: QLQLQESGPGLVKPSETLSLTCTVSGGSISSRSYYWGWIRQPPGKGLEWIGSIYYSGFTYYQPSLKSRVTISVDTSKNQFSLKLSSVTAADTAVYYCATGGPYGDYAHWFEPWGQGTLVTVSS
VL: not shown
notes: Whole mAb from Bristol Myers Squibb, captured in SPR through an anti-human IgG Fc antibody; The isotype-matched control was an IgG4, so I surmise the mAb is a human IgG4; source: Expi293, transient transfection, purified (Protein A MabSelect SuRe)
B1 gave a Kd of 1.8 nM, a koff of 0.0046 s⁻¹ and a kon of 2.6e+06 M⁻¹ s⁻¹.

Reference: publication PMC9057587 (The Journal of Clinical Investigation, 2022)
